The target in this assay is IL-4 receptor α (IL-4Rα) (UniProt P24394).
Sequence of UniProt P24394 (P24394 26-825): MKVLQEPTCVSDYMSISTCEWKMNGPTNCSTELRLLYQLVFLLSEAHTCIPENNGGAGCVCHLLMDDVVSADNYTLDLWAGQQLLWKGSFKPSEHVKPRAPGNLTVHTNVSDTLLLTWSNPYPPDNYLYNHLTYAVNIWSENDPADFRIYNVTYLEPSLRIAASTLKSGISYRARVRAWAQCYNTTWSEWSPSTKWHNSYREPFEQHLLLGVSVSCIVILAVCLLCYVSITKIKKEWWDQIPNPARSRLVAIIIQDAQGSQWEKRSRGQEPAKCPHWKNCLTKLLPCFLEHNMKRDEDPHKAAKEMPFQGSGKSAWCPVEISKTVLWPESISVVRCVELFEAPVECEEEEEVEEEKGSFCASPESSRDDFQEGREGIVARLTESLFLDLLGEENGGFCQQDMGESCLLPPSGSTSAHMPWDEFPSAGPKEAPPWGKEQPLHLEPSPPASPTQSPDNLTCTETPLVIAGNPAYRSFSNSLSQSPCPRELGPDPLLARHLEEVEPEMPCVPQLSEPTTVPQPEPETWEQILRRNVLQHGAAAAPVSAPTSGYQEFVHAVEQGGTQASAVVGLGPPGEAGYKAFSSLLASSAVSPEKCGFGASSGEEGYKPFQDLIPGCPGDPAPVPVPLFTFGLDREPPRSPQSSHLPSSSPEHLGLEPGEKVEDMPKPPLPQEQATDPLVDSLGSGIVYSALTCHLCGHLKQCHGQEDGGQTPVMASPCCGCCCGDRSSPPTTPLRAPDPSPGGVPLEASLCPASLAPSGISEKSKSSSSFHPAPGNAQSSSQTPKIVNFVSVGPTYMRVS

The substance “Wildtype human IL-4 (from UniProt P05112 25-153) (ligand)” gave a TF-1 cell proliferation, dose dependency for wild-type human IL-4 (EC50) of 0.01 to 0.02 nM.

For the origin of these results see article PMC3558457.
